# Source: IntAct's records for PubMed 29039417
# B1: BBSome complex member BBS1 (Homo sapiens), Q8NFJ9 (parent)
# chain: MAAASSSDSDACGAESNEANSKWLDAHYDPMANIHTFSACLALADLHGDGEYKLVVGDLGPGGQQPRLKVLKGPLVMTESPLPALPAAAATFLMEQHEPRTPALALASGPCVYVYKNLRPYFKFSLPQLPPNPLEQDLWNQAKEDRIDPLTLKEMLESIRETAEEPLSIQSLRFLQLELSEMEAFVNQHKSNSIKRQTVITTMTTLKKNLADEDAVSCLVLGTENKELLVLDPEAFTILAKMSLPSVPVFLEVSGQFDVEFRLAAACRNGNIYILRRDSKHPKYCIELSAQPVGLIRVHKVLVVGSTQDSLHGFTHKGKKLWTVQMPAAILTMNLLEQHSRGLQAVMAGLANGEVRIYRDKALLNVIHTPDAVTSLCFGRYGREDNTLIMTTRGGGLIIKILKRTAVFVEGGSEVGPPPAQAMKLNVPRKTRLYVDQTLREREAGTAMHRAFQTDLYLLRLRAARAYLQALESSLSPLSTTAREPLKLHAVVQGLGPTFKLTLHLQNTSTTRPVLGLLVCFLYNEALYSLPRAFFKVPLLVPGLNYPLETFVESLSNKGISDIIKVLVLREGQSAPLLSAHVNMPGSEGLAAA
# partner: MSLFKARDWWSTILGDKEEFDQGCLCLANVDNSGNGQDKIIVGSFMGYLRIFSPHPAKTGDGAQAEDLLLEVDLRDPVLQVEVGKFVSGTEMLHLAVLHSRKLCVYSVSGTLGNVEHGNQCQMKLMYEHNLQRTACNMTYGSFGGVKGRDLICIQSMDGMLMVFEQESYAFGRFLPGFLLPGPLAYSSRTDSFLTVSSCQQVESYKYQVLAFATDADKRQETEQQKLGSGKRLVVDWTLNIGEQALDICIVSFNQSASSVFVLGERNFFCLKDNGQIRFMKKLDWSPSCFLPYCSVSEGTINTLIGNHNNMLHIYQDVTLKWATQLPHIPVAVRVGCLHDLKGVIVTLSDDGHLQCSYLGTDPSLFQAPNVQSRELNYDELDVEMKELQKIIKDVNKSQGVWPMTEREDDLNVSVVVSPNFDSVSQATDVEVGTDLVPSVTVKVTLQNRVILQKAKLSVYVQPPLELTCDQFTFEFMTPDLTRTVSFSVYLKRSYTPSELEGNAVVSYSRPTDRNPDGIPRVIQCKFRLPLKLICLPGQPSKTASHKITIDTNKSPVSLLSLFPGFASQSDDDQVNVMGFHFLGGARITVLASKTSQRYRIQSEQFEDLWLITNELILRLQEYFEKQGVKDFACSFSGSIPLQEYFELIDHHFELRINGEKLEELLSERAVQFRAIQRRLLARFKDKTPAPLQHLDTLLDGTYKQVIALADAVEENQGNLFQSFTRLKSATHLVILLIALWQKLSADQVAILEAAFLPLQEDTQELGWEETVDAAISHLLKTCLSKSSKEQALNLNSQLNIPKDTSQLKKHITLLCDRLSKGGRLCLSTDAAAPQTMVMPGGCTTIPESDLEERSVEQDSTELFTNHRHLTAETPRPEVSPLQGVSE
# Variants of: B1
# Settings: with pthb1_human BBS9, Q3SYG4
row,effect of a mutation on the interaction,Variant
1,with no effect,F452E
2,disrupting interaction strength,F452C
3,with no effect,F452K
4,with no effect,F452A
5,with no effect,R450E
6,with no effect,R450A
7,with no effect,R450K
8,with no effect,A444E
9,with no effect,A444K
10,with no effect,S474A
11,with no effect,S474K
12,with no effect,S474E
13,with no effect,A466K
14,with no effect,A466E
15,with no effect,E443K
16,with no effect,E443A
17,with no effect,H449A
18,with no effect,H449E
19,with no effect,H449K
20,with no effect,T454A
21,with no effect,T454K
22,with no effect,T454E
23,with no effect,T481E

row,effect of a mutation on the interaction,Variant
1,with no effect,T481K
2,with no effect,T481A
3,with no effect,T480A
4,with no effect,T480E
5,with no effect,T480K
6,with no effect,E441A
7,with no effect,E441K
8,with no effect,Y467A
9,with no effect,Y467K
10,with no effect,Y467E
11,with no effect,S479K
12,with no effect,S479E
13,with no effect,S479A
14,with no effect,Q469A
15,with no effect,Q469K
16,with no effect,Q469E
17,with no effect,V492A
18,with no effect,V492E
19,with no effect,V492K
20,with no effect,A482E
21,with no effect,A482K
22,with no effect,P485A
23,with no effect,P485E

row,effect of a mutation on the interaction,Variant
1,with no effect,P485K
2,with no effect,A464E
3,with no effect,A464K
4,with no effect,R465E
5,with no effect,R465A
6,with no effect,R465K
7,with no effect,R440E
8,with no effect,R440A
9,with no effect,R440K
10,with no effect,L458A
11,with no effect,L458E
12,with no effect,L458K
13,with no effect,V491K
14,with no effect,V491E
15,with no effect,V491A
16,with no effect,L503A
17,disrupting interaction strength,L503E
18,disrupting interaction strength,L503K
19,with no effect,Y457K
20,with no effect,Y457E
21,with no effect,Y457A
22,with no effect,K500A
23,with no effect,K500E

row,effect of a mutation on the interaction,Variant
1,with no effect,L439K
2,disrupting interaction strength,L501K
3,disrupting interaction strength,L501A
4,disrupting interaction strength,L501E
5,with no effect,L468E
6,with no effect,L468A
7,with no effect,L468K
8,with no effect,R483A
9,with no effect,R483E
10,with no effect,R483K
11,with no effect,Q453A
12,with no effect,Q453K
13,with no effect,Q453E
14,with no effect,L478K
15,with no effect,L478E
16,with no effect,L478A
17,with no effect,G496E
18,with no effect,G496K
19,with no effect,G496A
20,with no effect,T498A
21,with no effect,T498K
22,with no effect,T498E
23,with no effect,S473E

row,effect of a mutation on the interaction,Variant
1,with no effect,S473K
2,with no effect,S473A
3,with no effect,L475A
4,with no effect,L475K
5,with no effect,L475E
6,with no effect,E472K
7,with no effect,E472A
8,with no effect,A490K
9,with no effect,A490E
10,with no effect,P497E
11,with no effect,P497A
12,with no effect,P497K
13,with no effect,F499K
14,disrupting interaction strength,F499E
15,with no effect,F499A
16,with no effect,T446E
17,with no effect,T446K
18,with no effect,T446A
19,with no effect,R460E
20,with no effect,R460A
21,with no effect,R460K
22,with no effect,E484A
23,with no effect,E484K

row,effect of a mutation on the interaction,Variant
1,with no effect,L495A
2,with no effect,L495E
3,with no effect,L495K
4,with no effect,Q493E
5,with no effect,Q493K
6,with no effect,Q493A
7,with no effect,D455A
8,with no effect,D455E
9,with no effect,D455K
10,with no effect,L459E
11,with no effect,L459K
12,disrupting interaction strength,L459S
13,with no effect,L459A
14,with no effect,R442A
15,with no effect,R442K
16,with no effect,R442E
17,disrupting interaction strength,A463E
18,disrupting interaction strength,A463K
19,with no effect,A451E
20,with no effect,A451K
21,disrupting interaction strength,L471F
22,with no effect,L471K
23,with no effect,L471E

row,effect of a mutation on the interaction,Variant
1,with no effect,L471A
2,with no effect,K487E
3,with no effect,K487A
4,with no effect,G445A
5,with no effect,G445K
6,with no effect,G445E
7,with no effect,L488A
8,with no effect,L488E
9,with no effect,L488K
10,with no effect,L456K
11,with no effect,L456A
12,with no effect,L456E
13,with no effect,M448A
14,with no effect,M448E
15,with no effect,M448K
16,with no effect,L461A
17,with no effect,L461K
18,with no effect,L461E
19,with no effect,G494A
20,with no effect,G494E
21,with no effect,G494K
22,with no effect,H489A
23,with no effect,H489K

row,effect of a mutation on the interaction,Variant
1,with no effect,H489E
2,with no effect,A470E
3,with no effect,A470K
4,disrupting interaction strength,L486K
5,disrupting interaction strength,L486E
6,with no effect,L486A
7,with no effect,T502K
8,with no effect,T502A
9,with no effect,T502E
10,with no effect,S476A
11,with no effect,S476E
12,with no effect,S476K
13,with no effect,A447E
14,with no effect,A447K
15,with no effect,P477A
16,with no effect,P477K
17,with no effect,P477E
18,with no effect,R462K
19,with no effect,R462A
20,with no effect,R462E
